Measurements as given in US20240400671A1 (LANIER BIOTHERAPEUTICS, published 2024).

T1: recombinant human IL-25 (R&D Systems) (human, UniProt Q9H293 33-177)
T1 sequence (looked up): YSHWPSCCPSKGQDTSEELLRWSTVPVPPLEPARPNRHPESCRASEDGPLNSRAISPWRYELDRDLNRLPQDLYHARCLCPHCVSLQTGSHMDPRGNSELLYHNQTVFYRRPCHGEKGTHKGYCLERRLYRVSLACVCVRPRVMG

B1: ABM125 (Chimera) (antibody, V domains shown)
VH: QVTLKVSGPGILQPSQTLSLTCSFSGFSLNTSGMGVGWIRQPSGKGLEWLAHIWWDDVKRYNPALKSRLTISKDTSGSQVFLKIASVDTADTATYYCARTLPHFFDYWGQGTTLTVSS
VL: DIQMTQSPAIMSASPGEKVTISCRASSSVSYMYWYQQKSGSSPKPWIYRTSNLASGVPARFSGSGSGTSYSLTISSMEAEDAATYYCKQYHSYPPTWTFGGGTKLEIKR
modifications: N-glycosylation site in heavy chain CDR1 created by S29N, confirmed biophysically
B2: hABM125.34 (antibody, V domains shown)
VH: QVTLKESGPTLVKPTQTLTLTCTFSGFSLSTSGMGVGWIRQPPGKALEWLAHIWWDDVKRYNPSLKSRLTITKDTSGSQVVLTMTNMDPVDTATYYCARTLPHFHDYWGQGTTLTVSS
VL: DIQMTQSPSTLSASVGDRVTITCRASSSVSYMYWYQQKPGKAPKPLIYRTSNLASGVPSRFSGSGSGTEYTLTISSLQPDDFATYYCKQYHSYPPTWTFGGGTKLEIKR

Molecular target: T1, recombinant human IL-25 (R&D Systems)
Test: cell-based or functional assay

| Binder | IC50 |
| --- | --- |
| B1 | 0.18 mg/L |
| B2 | 0.22 mg/L |
